Laboratory results: EP4755449A2 (CHUGAI SEIYAKU KABUSHIKI KAISHA, dated 2026)

T1: human Fc gamma RIIb extracellular domain, His-tagged (human, UniProt P31994 43-217)
T1 construct: also called FcgRIIb
T1 sequence: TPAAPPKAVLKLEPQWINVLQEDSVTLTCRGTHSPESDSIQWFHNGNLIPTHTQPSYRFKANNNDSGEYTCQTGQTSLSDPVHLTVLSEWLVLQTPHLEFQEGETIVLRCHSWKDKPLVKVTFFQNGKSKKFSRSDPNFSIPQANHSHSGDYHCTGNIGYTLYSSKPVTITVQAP


biological target: T1, human Fc gamma RIIb extracellular …; assay: SPR 25C, antigen-antibody complex injected over captured His-tagged receptor

| binding result | Binder |
| --- | --- |
| binds | MS1032LO06-P1499m (antibody, human IgG1, kappa) heavy: not shown light: DIVMTQSPATLSLSPGERATLSCTSSQSVYHANWLSWFQQKPGQPPKLLIYWASTLAYGVPSRFSGSGSGTDFTLTISSLQPEDAATYYCAGGYGGGRYAFGQGTKVEIKRTVAAPSVFIFPPSDEQLKSGTASVVCLLNNFYPREAKVQWKVDNALQSGNSQESVTEQDSKDSTYSLSSTLTLSKADYEKHKVYACEVTHQGLSSPVTKSFNRGEC |
| binds | MS103205H795-SG141/M103202L889-SK1 (antibody, human IgG1, kappa, copies: 2 + 2) heavy: not shown light: DIVMTQSPATLSLSPGERATLSCTSSQSVYHANWLSWFQQKPGQPPKLLIYWASTLAYGVPSRFSGSGSGTDFTLTISSLQPEDAATYYCAGGYGGGRYAFGQGTKVEIKRTVAAPSVFIFPPSDEQLKSGTASVVCLLNNFYPREAKVQWKVDNALQSGNSQESVTEQDSKDSTYSLSSTLTLSKADYEKHKVYACEVTHQGLSSPVTKSFNRGEC |
| binds | MS1032LO06-P1540m (antibody, human IgG1, kappa, copies: 2 + 2) heavy: not shown light: DIVMTQSPATLSLSPGERATLSCTSSQSVYHANWLSWFQQKPGQPPKLLIYWASTLAYGVPSRFSGSGSGTDFTLTISSLQPEDAATYYCAGGYGGGRYAFGQGTKVEIKRTVAAPSVFIFPPSDEQLKSGTASVVCLLNNFYPREAKVQWKVDNALQSGNSQESVTEQDSKDSTYSLSSTLTLSKADYEKHKVYACEVTHQGLSSPVTKSFNRGEC |
